Article PMC6082896

Biological target: T1, OxyR (Pseudomonas aeruginosa (PAO1?)) (UniProt Q9HTL4)
T1 sequence: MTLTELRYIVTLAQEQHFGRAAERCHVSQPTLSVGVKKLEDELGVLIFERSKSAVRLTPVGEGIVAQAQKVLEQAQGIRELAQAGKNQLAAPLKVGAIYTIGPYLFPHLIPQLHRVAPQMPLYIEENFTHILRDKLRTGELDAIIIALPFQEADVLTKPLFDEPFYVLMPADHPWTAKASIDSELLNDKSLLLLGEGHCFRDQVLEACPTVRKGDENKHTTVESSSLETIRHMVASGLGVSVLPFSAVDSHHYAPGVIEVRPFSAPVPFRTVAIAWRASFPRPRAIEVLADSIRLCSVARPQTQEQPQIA
Test: EMSA
Details: 20 mM Tris-HCl pH 7.0, 50 mM KCl, 1 mM EDTA, 5% glycerol, 50 ug/ml BSA, 5 ug/ml calf thymus DNA, 0.5 ug/ml poly[dI-dC], 50 ug/ml salmon sperm DNA, 100 mM DTT …

## AAGTCGGTGATGGCCTCGCCGGCCAGGCGGCGCAGGCGCTTCTGCAGTTTGTTCTGATTGACCGAAAGGGTGCCCATGGTGCTCTGGAATCCGGGTGTTCGAGGAGAAAAGCTGGCTATTTTACGCACAAAGCGACGCCGACCCCAGCCCCTCCCGACGCCCGATGCTAGTCTTGCCCCATGACTCCCGACCTCGACCACCGCCTCGACCT (double strand) [ttcA promoter fragment]
  binding: binds
